{"source": "patent US20220289850", "about": "(published 2022)", "biological_target": "T1, human integrin avb8 (human)", "T1 chain 1": "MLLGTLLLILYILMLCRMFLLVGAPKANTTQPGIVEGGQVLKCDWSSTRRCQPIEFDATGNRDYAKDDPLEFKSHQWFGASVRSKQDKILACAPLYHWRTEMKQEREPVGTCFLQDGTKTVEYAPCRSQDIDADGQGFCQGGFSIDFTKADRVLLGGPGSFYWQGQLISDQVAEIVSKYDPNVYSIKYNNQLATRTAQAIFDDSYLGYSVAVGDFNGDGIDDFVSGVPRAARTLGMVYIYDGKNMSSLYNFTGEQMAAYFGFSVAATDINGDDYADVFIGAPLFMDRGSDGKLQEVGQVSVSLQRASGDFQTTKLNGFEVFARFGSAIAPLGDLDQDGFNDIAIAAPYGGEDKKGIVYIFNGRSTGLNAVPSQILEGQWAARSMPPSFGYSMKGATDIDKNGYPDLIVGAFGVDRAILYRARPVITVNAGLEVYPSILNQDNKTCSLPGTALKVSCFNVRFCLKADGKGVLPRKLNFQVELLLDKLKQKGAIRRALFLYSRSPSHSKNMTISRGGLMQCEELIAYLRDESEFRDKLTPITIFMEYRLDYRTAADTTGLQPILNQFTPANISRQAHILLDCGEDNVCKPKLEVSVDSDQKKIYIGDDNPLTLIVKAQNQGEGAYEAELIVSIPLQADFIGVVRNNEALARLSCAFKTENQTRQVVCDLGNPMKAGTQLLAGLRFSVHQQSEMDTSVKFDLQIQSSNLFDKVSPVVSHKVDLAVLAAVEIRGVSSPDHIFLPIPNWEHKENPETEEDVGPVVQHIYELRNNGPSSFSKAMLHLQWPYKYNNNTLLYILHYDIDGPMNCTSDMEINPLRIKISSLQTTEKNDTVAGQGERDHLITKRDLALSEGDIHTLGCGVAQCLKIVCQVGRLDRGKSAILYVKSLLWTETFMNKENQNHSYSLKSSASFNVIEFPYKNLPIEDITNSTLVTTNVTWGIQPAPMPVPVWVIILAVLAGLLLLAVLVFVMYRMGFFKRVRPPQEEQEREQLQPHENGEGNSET", "T1 chain 2": "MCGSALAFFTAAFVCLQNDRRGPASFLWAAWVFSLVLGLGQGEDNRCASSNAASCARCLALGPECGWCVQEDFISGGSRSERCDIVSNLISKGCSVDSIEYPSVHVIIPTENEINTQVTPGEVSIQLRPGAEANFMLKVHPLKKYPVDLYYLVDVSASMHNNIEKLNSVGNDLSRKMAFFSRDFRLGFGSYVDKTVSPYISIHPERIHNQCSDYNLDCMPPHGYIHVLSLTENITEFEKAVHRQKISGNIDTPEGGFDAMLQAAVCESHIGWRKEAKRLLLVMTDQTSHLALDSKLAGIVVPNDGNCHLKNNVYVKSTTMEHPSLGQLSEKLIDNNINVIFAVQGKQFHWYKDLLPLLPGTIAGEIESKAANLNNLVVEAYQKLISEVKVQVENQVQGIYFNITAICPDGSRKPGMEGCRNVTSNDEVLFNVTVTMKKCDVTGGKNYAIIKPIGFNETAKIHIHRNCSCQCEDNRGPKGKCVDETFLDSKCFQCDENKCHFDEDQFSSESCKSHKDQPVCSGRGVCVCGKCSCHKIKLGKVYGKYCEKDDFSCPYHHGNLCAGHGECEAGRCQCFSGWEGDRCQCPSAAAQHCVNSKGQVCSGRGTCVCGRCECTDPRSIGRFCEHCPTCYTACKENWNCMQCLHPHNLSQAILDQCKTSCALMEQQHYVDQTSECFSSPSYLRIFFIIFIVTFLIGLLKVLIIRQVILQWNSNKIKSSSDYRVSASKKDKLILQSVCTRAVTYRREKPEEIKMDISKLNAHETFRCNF", "assay": "SPR", "data": [{"binder": "ADWA11 2.4 Fab (antibody, V domains shown) VH: EVQLVESGGGLVQPGGSLRLSCAASGFNIKDYYMNWVRQAPGKGLEWVGWIDPDQGNTIYEPKFQGRFTISADTSKNSAYLQMNSLRAEDTAVYYCARRLLMDYWGQGTLVTVSS VL: DIQMTQSPSSLSASVGDRVTITCRSTKSLSHFNGNTYLFWYQQKPGKAPKRLIYYMSSLASGVPSRFSGSGSGTDFTLTISSLQPEDFATYYCQQSLEYPFTFGGGTKVEIK", "values": [{"measurement": "Kd", "result": "< 0.1", "unit": "nM"}]}]}
